Measurements published in the Human Domainome abundance scans (Beltran et al. 2025).
± gives the uncertainty stated by the source.

B1: DnaJ homolog subfamily C member 5, residues 16 to 77; numbered along this chain, Q9H3Z4 (parent)
chain: LYHVLGLDKNATSDDIKKSYRKLALKYHPDKNPDNPEAADKFKEINNAHAILTDATKRNIYD

Variants of: B1
Experiment: abundance fitness (aPCA) (normalised: wild type 0, dead -1); higher = more abundant; growth selection in yeast, the domain comes from the species named
Conditions: Homo sapiens
In the case of LYHVLGLDKNATSDDIKKSYRKLALKGHPDKNPDNPEAADKFKEINNAHAILTDATKRNIYD, the abundance fitness is reported as -0.27 ± 0.077. In the case of LYHVLGLDKNATSDDIKKSYRKLALKHHPDKNPDNPEAADKFKEINNAHAILTDATKRNIYD, the abundance fitness is reported as 0.185 ± 0.24. LYHVLGLDKNATSDDIKKSYRKLALKIHPDKNPDNPEAADKFKEINNAHAILTDATKRNIYD gave an abundance fitness of -0.715 ± 0.22. LYHVLGLDKNATSDDIKKSYRKLALKKHPDKNPDNPEAADKFKEINNAHAILTDATKRNIYD gave an abundance fitness of -0.379 ± 0.12. For LYHVLGLDKNATSDDIKKSYRKLALKLHPDKNPDNPEAADKFKEINNAHAILTDATKRNIYD, the abundance fitness was -0.326 ± 0.062. LYHVLGLDKNATSDDIKKSYRKLALKMHPDKNPDNPEAADKFKEINNAHAILTDATKRNIYD showed an abundance fitness of -0.196 ± 0.12. Variant LYHVLGLDKNATSDDIKKSYRKLALKNHPDKNPDNPEAADKFKEINNAHAILTDATKRNIYD has an abundance fitness of -0.83 ± 0.36. For LYHVLGLDKNATSDDIKKSYRKLALKPHPDKNPDNPEAADKFKEINNAHAILTDATKRNIYD, the abundance fitness was -0.61 ± 0.16. For LYHVLGLDKNATSDDIKKSYRKLALKRHPDKNPDNPEAADKFKEINNAHAILTDATKRNIYD, the abundance fitness was -0.543 ± 0.079. In the case of LYHVLGLDKNATSDDIKKSYRKLALKSHPDKNPDNPEAADKFKEINNAHAILTDATKRNIYD, the abundance fitness is reported as -0.21 ± 0.083. Variant LYHVLGLDKNATSDDIKKSYRKLALKTHPDKNPDNPEAADKFKEINNAHAILTDATKRNIYD has an abundance fitness of -0.157 ± 0.16. LYHVLGLDKNATSDDIKKSYRKLALKVHPDKNPDNPEAADKFKEINNAHAILTDATKRNIYD gave an abundance fitness of -0.571 ± 0.095. In the case of LYHVLGLDKNATSDDIKKSYRKLALKWHPDKNPDNPEAADKFKEINNAHAILTDATKRNIYD, the abundance fitness is reported as 0.231 ± 0.099. Variant LYHVLGLDKNATSDDIKKSYRKLALKYAPDKNPDNPEAADKFKEINNAHAILTDATKRNIYD has an abundance fitness of -0.06 ± 0.26. LYHVLGLDKNATSDDIKKSYRKLALKYCPDKNPDNPEAADKFKEINNAHAILTDATKRNIYD showed an abundance fitness of -0.29 ± 0.29. In the case of LYHVLGLDKNATSDDIKKSYRKLALKYDPDKNPDNPEAADKFKEINNAHAILTDATKRNIYD, the abundance fitness is reported as 0.062 ± 0.16. For LYHVLGLDKNATSDDIKKSYRKLALKYEPDKNPDNPEAADKFKEINNAHAILTDATKRNIYD, the abundance fitness was 0.179 ± 0.29. In the case of LYHVLGLDKNATSDDIKKSYRKLALKYFPDKNPDNPEAADKFKEINNAHAILTDATKRNIYD, the abundance fitness is reported as -0.541 ± 0.28. LYHVLGLDKNATSDDIKKSYRKLALKYGPDKNPDNPEAADKFKEINNAHAILTDATKRNIYD showed an abundance fitness of -0.037 ± 0.12. Work on LYHVLGLDKNATSDDIKKSYRKLALKYKPDKNPDNPEAADKFKEINNAHAILTDATKRNIYD yielded an abundance fitness of 0.134 ± 0.2. Work on LYHVLGLDKNATSDDIKKSYRKLALKYLPDKNPDNPEAADKFKEINNAHAILTDATKRNIYD yielded an abundance fitness of -0.536 ± 0.16. Variant LYHVLGLDKNATSDDIKKSYRKLALKYQPDKNPDNPEAADKFKEINNAHAILTDATKRNIYD has an abundance fitness of 0.34 ± 0.34. For LYHVLGLDKNATSDDIKKSYRKLALKYRPDKNPDNPEAADKFKEINNAHAILTDATKRNIYD, the abundance fitness was -0.194 ± 0.17. In the case of LYHVLGLDKNATSDDIKKSYRKLALKYSPDKNPDNPEAADKFKEINNAHAILTDATKRNIYD, the abundance fitness is reported as 0.219 ± 0.15. Work on LYHVLGLDKNATSDDIKKSYRKLALKYVPDKNPDNPEAADKFKEINNAHAILTDATKRNIYD yielded an abundance fitness of -0.459 ± 0.17. For LYHVLGLDKNATSDDIKKSYRKLALKYWPDKNPDNPEAADKFKEINNAHAILTDATKRNIYD, the abundance fitness was -0.474 ± 0.35. With LYHVLGLDKNATSDDIKKSYRKLALKYYPDKNPDNPEAADKFKEINNAHAILTDATKRNIYD the abundance fitness was -0.409 ± 0.13. Variant LYHVLGLDKNATSDDIKKSYRKLALKYHADKNPDNPEAADKFKEINNAHAILTDATKRNIYD has an abundance fitness of -0.053 ± 0.071. LYHVLGLDKNATSDDIKKSYRKLALKYHCDKNPDNPEAADKFKEINNAHAILTDATKRNIYD gave an abundance fitness of -0.42 ± 0.11. For LYHVLGLDKNATSDDIKKSYRKLALKYHDDKNPDNPEAADKFKEINNAHAILTDATKRNIYD, the abundance fitness was -0.111 ± 0.092. Work on LYHVLGLDKNATSDDIKKSYRKLALKYHFDKNPDNPEAADKFKEINNAHAILTDATKRNIYD yielded an abundance fitness of -0.542 ± 0.11. In the case of LYHVLGLDKNATSDDIKKSYRKLALKYHGDKNPDNPEAADKFKEINNAHAILTDATKRNIYD, the abundance fitness is reported as -0.381 ± 0.064. In the case of LYHVLGLDKNATSDDIKKSYRKLALKYHHDKNPDNPEAADKFKEINNAHAILTDATKRNIYD, the abundance fitness is reported as -0.539 ± 0.11. LYHVLGLDKNATSDDIKKSYRKLALKYHIDKNPDNPEAADKFKEINNAHAILTDATKRNIYD showed an abundance fitness of -0.57 ± 0.095. Variant LYHVLGLDKNATSDDIKKSYRKLALKYHLDKNPDNPEAADKFKEINNAHAILTDATKRNIYD has an abundance fitness of -0.472 ± 0.066. Work on LYHVLGLDKNATSDDIKKSYRKLALKYHMDKNPDNPEAADKFKEINNAHAILTDATKRNIYD yielded an abundance fitness of -0.386 ± 0.084. With LYHVLGLDKNATSDDIKKSYRKLALKYHNDKNPDNPEAADKFKEINNAHAILTDATKRNIYD the abundance fitness was -0.278 ± 0.067. LYHVLGLDKNATSDDIKKSYRKLALKYHQDKNPDNPEAADKFKEINNAHAILTDATKRNIYD showed an abundance fitness of -0.377 ± 0.072. With LYHVLGLDKNATSDDIKKSYRKLALKYHRDKNPDNPEAADKFKEINNAHAILTDATKRNIYD the abundance fitness was -0.422 ± 0.055. For LYHVLGLDKNATSDDIKKSYRKLALKYHSDKNPDNPEAADKFKEINNAHAILTDATKRNIYD, the abundance fitness was -0.159 ± 0.065. For LYHVLGLDKNATSDDIKKSYRKLALKYHTDKNPDNPEAADKFKEINNAHAILTDATKRNIYD, the abundance fitness was -0.292 ± 0.069. LYHVLGLDKNATSDDIKKSYRKLALKYHVDKNPDNPEAADKFKEINNAHAILTDATKRNIYD gave an abundance fitness of -0.414 ± 0.062. LYHVLGLDKNATSDDIKKSYRKLALKYHWDKNPDNPEAADKFKEINNAHAILTDATKRNIYD gave an abundance fitness of -0.66 ± 0.077.
